Series [1] deals with the molecule itself. Put plainly: SEC. A general note: SEC sorts molecules by how far they enter the pores of the column.
The target of series [2] is T1, ComAC (ComA C-terminal DNA-binding domain) (Bacillus subtilis, UniProt P14204 146-214).
T1 sequence: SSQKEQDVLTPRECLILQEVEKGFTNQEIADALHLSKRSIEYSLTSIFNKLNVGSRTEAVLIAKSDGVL
The series is described as follows: SPR.

Series [3] deals with T1, ComAC (ComA C-terminal DNA-binding …). Put plainly: SPR. The source holds these as a separate data set. A general note: SPR reads the build-up and loss of mass on a sensor chip optically.

Substitutions are numbered along the chain they refer to. Numbers in names are those of the source. Read-outs that look alike come from different tables or passages of the source.

B1: Full-length competence protein A (ComAFL) (natural protein, Bacillus subtilis, UniProt P14204 1-214, looked up)
chain: MKKILVIDDHPAVMEGTKTILETDSNLSVDCLSPEPSEQFIKQHDFSSYDLILMDLNLGGEVNGMELSKQILQENPHCKIIVYTGYEVEDYFEEAIRAGLHGAISKTESKEKITQYIYHVLNGEILVDFAYFKQLMTQQKTKPAPSSQKEQDVLTPRECLILQEVEKGFTNQEIADALHLSKRSIEYSLTSIFNKLNVGSRTEAVLIAKSDGVL
Take B1: the “stoichiometry N” value in series [1] is 2.

B2: N-terminal domain of competence protein A (ComAN, residues 1-126) (domain or fragment, Bacillus subtilis, UniProt P14204 1-126, looked up)
chain: MKKILVIDDHPAVMEGTKTILETDSNLSVDCLSPEPSEQFIKQHDFSSYDLILMDLNLGGEVNGMELSKQILQENPHCKIIVYTGYEVEDYFEEAIRAGLHGAISKTESKEKITQYIYHVLNGEIL
As for B2, the “stoichiometry N” value in series [1] worked out at 2.

B3: N-terminal domain of competence protein A with asparagine at position 55 (ComAN-D55N, residues 1-126) (domain or fragment, Bacillus subtilis, UniProt P14204 1-126, looked up)
chain: B2 chain with D55N
Take B3: the “stoichiometry N” value in series [1] is 2.

B4: Consensus RE1-RE3 (dsDNA)
DNA 1: TTGCGGCATCCCGCAAGAAACTTTGCGG
DNA 2: CCGCAAAGTTTCTTGCGGGATGCCGCAA
Consider B4, for which, in series [2], the Kd came to 11.3 nM.

B5: Wild type srfA (dsDNA)
DNA 1: TTTCGGCATCCCGCATGAAACTTTTCAC
DNA 2: GTGAAAAGTTTCATGCGGGATGCCGAAA
On to B5, for which the Kd in series [3] was 9.59 nM.

B6: Consensus RE3 (dsDNA)
DNA 1: TTTCGGCATCCCGCATGAAACTTTGCGG
DNA 2: CCGCAAAGTTTCATGCGGGATGCCGAAA
With B6, in series [3], the Kd was 4.94 nM.

In general, stoichiometry N refers to a count of units in the complex or per binding partner. What is called Kd is a measure of binding affinity in units of concentration.

For the origin of these results see PMC2855743 (Journal of molecular biology, 2010).
